Consider five molecules from patent US9290544B2, “Methods for making and using molecular switches involving circular permutation” (priority 2004, dated 2016).

Where two headings read alike, the source gives them in different places.

A short description of data set [1]: Nitrocefin hydrolysis in soluble fraction of cell lysates with and without 5 mM maltose (screen and confirmation of positives). To be noted: 50 μM nitrocefin; 5 mM maltose; 100 mM sodium phosphate buffer, pH 7.0. Type of data set: biochemical. Here is the method:
Next, 50 μl of PopCulture (Novagen) and 2.5 unit of benzonase nuclease was added to each well and incubated for 15 minutes at room temperature to lyse the cells. The cells debris and any unlysed cells were pelleted by centrifugation and supernatant was recovered. In 96-well format, 60 μl of lysate was assayed for hydrolysis of nitrocefin (50 μM) by monitoring the increase in absorbance at 490 nm in 100 mM sodium phosphate buffer, pH 7.0, both with and without 5 mM maltose. Any lysate in which there was a difference in rate of more than 2-fold (between with and without maltose) was selected for retesting and further investigation.
Library members identified as having more than 200% switching activity in the 96-well plate screen were grown 24-48 hours in 100 ml LB media in 500 ml shaker flasks at 22° C. without IPTG. The cells were pelleted and resuspended in 8 ml assay buffer (100 mM sodium phosphate buffer, pH 7.0) and lysed by French press. The soluble fraction of this lysate was assayed for hydrolysis of nitrocefin (50 μM) at 22° C. as previously described (Guntas and Ostermeier 2004) both with and without 5 mM maltose. Initial rates were determined from absorbance at 486 nm monitored as a function of time. The enzyme was incubated at the assay temperature in the absence or presence of 5 mM maltose for four minutes prior to performing the assay. All assays contained 100 mM sodium phosphate buffer, pH 7.0. Library members for which there was a difference in the initial rate of more than about 2-fold were sequenced (Table 4). Switches RG-5-169 and RG-200-13 were also assayed in the presence of 5 mM sucrose or 5 mM glucose.

A short description of data set [2]: Magnitude of switching in soluble fraction of cell lysates, Libraries 2-7 (FIG. 13). It counts as biochemical. Particulars: room temperature, 50 μM nitrocefin. Here is the method:
Libraries were plated on LB plates containing […] at the indicated concentrations of ampicillin and incubated at 37° C. overnight. From these plates, colonies were picked to inoculate 1 ml LB media (supplemented with 50 μg/ml chloramphenicol and 1 mM IPTG) in 96-well format. Lysates from these cultures were assayed for nitrocefin hydrolysis activity in the presence and absence of maltose as described above.
Libraries 2-7 were plated on different levels of ampicillin in the presence of 50 mM maltose. Colonies that grew were used to inoculate 96-well plates. The resulting cultures were lysed and assayed at room temperature for nitrocefin hydrolysis in the presence and absence of maltose in 96-well format.
FIG. 13 is a schematic depiction of the library construction schemes for Libraries 2-7, and of particular switches identified from these libraries. The arrowheads indicate the sites of insertion. Multiple arrowheads on one gene indicate random insertion sites. Dashed arrows indicate a particular switch on which successive libraries were based. The magnitude of switching was determined on the soluble fraction of cell lysates at room temperature using 50 μM nitrocefin. For switches with a rate increase in the presence of maltose, the ratio is of “with maltose” to “without maltose” (indicated by no sign in front of the value). […]

Data set [3] is described as follows: Apparent dissociation constant for maltose from initial rate of nitrocefin hydrolysis. It counts as binding. Particulars: 25° C. As to the method:
[formula] where ΔF is the change in fluorescence intensity, ΔFmax is the difference in fluorescence between no maltose and saturating amounts of maltose and [L] is the maltose concentration. The fluorescence quenching of RG13(1329W/A96W) upon addition of maltose was insufficient to accurately determine a Kd by this method. The dissociation constant for maltose and RG13(I329W) in the presence of saturating carbenicillin (2 mM) was determined by measuring the initial rate of carbenicillin hydrolysis as a function of maltose concentration. The apparent dissociation constant in the presence of subsaturating concentrations of nitrocefin (25 μM) for all three proteins was determined by measuring the initial rate of nitrocefin hydrolysis as a function of maltose concentration.

Data set [4] can be described thus: Steady state kinetics of nitrocefin hydrolysis, purified RG13 proteins, 25° C. Type of data set: biochemical. Particulars: for Km / kcat: nitrocefin. As to the method:
All kinetic assays were performed at 25° C. in the presence of 100 mM sodium phosphate buffer, pH 7.0. Ten μl of enzyme stock was added to 1.59 ml buffer (containing the saccharide, if desired). After incubation for 30 seconds, 0.4 ml of 5× substrate was added and the absorbance at the appropriate wavelength was recorded using the Cary50 UV-VIS spectrophotometer. The wavelength monitored was 486 nm, 240 nm, and 232 nm for nitrocefin, carbenicillin, and ampicillin respectively. From the initial rate of reaction the kinetic constants were determined using Eadie-Hofstee plots. […] The rate data was consistent with a small hysteretic effect (Brennan et al. 1994) and not substrate inhibition as preincubation of the enzyme with the substrate for one minute prevented the lag from occurring upon addition of more substrate. Therefore, the steady state parameters for nitrocefin hydrolysis in the absence of maltose were determined by measuring the rate at 1-2 minutes (well after the lag) and correcting the substrate concentration by subtracting the amount of substrate hydrolyzed. In all cases the extent of reaction at the point the rate was measured was less than 25%. In the presence of maltose, no lag was observed.

The subject of another data set is DH5α-E cells. The data set is described as follows: In vivo characterization: MIC of ampicillin for DH5α-E cells expressing the protein. It counts as cell-based, E. coli. To be noted: LB plates, 37° C., 20 hours. Here is the method: Overnight inoculums of DH5α-E cells expressing RG13, BLA or BLA(W208G) were diluted into LB media and plated on LB plates, either in the absence or presence of 50 μM maltose, in the presence of increasing amounts of ampicillin. Ampicillin was present in the plates at the following concentrations: 0, 2, 4, 8, 16, 32, 64, 128, 256, 512, and 2000 μg/ml. Cells were plated at approximately 1000 CFU (no antibiotic) per plate. The plates were incubated at 37° C. for 20 hours. The minimum inhibitory concentration (MIC) was defined as the lowest ampicillin concentration at which no colonies were present, or that at which the number of colonies present was <1% of the number of colonies at the next lowest level of ampicillin.

The conditions of data set [5]: cited from earlier work.
Setting [6] is: effector maltose 5 mM (saturating).
Setting [7] is: effector maltose 5 mM (saturating), 25° C.

With “IFD-5-7: MBP[1-165]-BLA[110-286]-DKS-BLA[24-107]-MBP[164-370]; SEQ ID NO: 67”, the “Switching effect: percent change in velocity of nitrocefin hydrolysis in the presence of 5 mM maltose” value (“Switching effect: percent change” for short) in data set [1] is reported as “+96%”.
For “IFG-5-277: MBP[1-165]-BLA[218-286]-GSGGG-BLA[24-215]-MBP[164-370]; maltose is a negative effector; SEQ ID NO: 69”, the “Effect of maltose on catalytic activity (magnitude of switching)” value in data set [2] was “negative effector”. Besides, in data set [1], the “Switching effect: percent change” value was −250%.
In the case of “IFD-5-15: MBP[1-165]-BLA[168-286]-DKS-BLA[24-170]-MBP[164-370]; SEQ ID NO: 71”, the “Switching effect: percent change” value in data set [1] is reported as “+97%”.
Broadly, the Km is the concentration of substrate that gives half-maximal velocity. One may read the kcat as the number of substrate molecules converted per active site and unit of time at saturation. Turning to “RG13 I329W/A96W: RG13 with MBP hinge mutations I329W and A96W; SEQ ID NO: 65”, the Kd in data set [3] was determined as 170 ± 20 nM. For the same molecule, in data set [4] (effector maltose 5 mM), the “Km Ratio (with effector)/(without effector)” value is 0.23 ± 0.04. In addition, in data set [4] (setting [6]), the “kcat Ratio (with effector)/(without effector)” value came to 1.5 ± 0.2 and the “kcat/Km Ratio (with effector)/(without effector)” value is 6.4 ± 1.3. In addition, in data set [4] (setting [7]), the Km is 60 ± 4 µM and the kcat is 530 ± 20 s⁻¹. In addition, in data set [4] (no effector, pH 7.0, 25° C.), the Km amounted to 260 ± 40 µM and the kcat was determined as 360 ± 40 s⁻¹.

B1: BLA: penicillin-hydrolyzing enzyme TEM1 β-lactamase, parent enzyme of the switches (protein, UniProt P62593 24-286, looked up)
Beta-lactamase TEM: HPETLVKVKDAEDQLGARVGYIELDLNSGKILESFRPEERFPMMSTFKVLLCGAVLSRVDAGQEQLGRRIHYSQNDLVEYSPVTEKHLTDGMTVRELCSAAITMSDNTAANLLLTTIGGPKELTAFLHNMGDHVTRLDRWEPELNEAIPNDERDTTMPAAMATTLRKLLTGELLTLASRQQLIDWMEADKVAGPLLRSALPAGWFIADKSGAGERGSRGIIAALGPDGKPSRIVVIYTTGSQATMDERNRQIAEIGASLIKHW
Take B1: the “Minimum Inhibitory Concentration of Ampicillin” value in the data set on DH5α-E cells (50 μM maltose) and in the data set on DH5α-E cells (No maltose) was “≧2000 μg/ml” throughout. Besides, the kcat is 900 s⁻¹ in data set [5] (previously reported for BLA at 24° C. (Sigal et al. 1984)) and 930 s⁻¹ in data set [5] (previously reported, 30° C. (Raquet et al. 1994)). Further, the Km in data set [5] (previously reported for BLA at 24° C. (Sigal et al. 1984), read-out: Km) is 110 µM; in data set [5] (previously reported, 30° C. (Raquet et al. 1994), read-out: Km), 52 µM; in data set [5] (substrate ampicillin (Raquet et al. 1994), read-out: Km for TEM-1 β-lactamase) it was 32 µM; in data set [5] (substrate benzylpenicillin (Raquet et al. 1994), read-out: Km for TEM-1 β-lactamase), 19 µM; in data set [5] (substrate cephalothin (Raquet et al. 1994), read-out: Km for TEM-1 β-lactamase), 246 µM; in data set [5] (substrate oxacillin (Raquet et al. 1994), read-out: Km for TEM-1 β-lactamase), 3 µM. For the same molecule, in data set [5] (with or without an equimolar amount of MBP (Guntas et al. 2004)), the “Effect of maltose on wild type BLA enzymatic activity” value was “no effect”.
